[ ]: non-standard residue; d: D form. pS = N[C@@H](COP(=O)(O)O)C(=O)O; FAM = 5,6-carboxyfluorescein; Ahx = NCCCCCC(=O)O
T1: 14‐3‐3σ (human, UniProt P31947 1-248)
T1 construct: 14-3-3 sigma, human, full-length protein from the pProEx HTb-His-14-3-3 construct (used in the FA assays); Written as the protomer; tag removal is told only for the ∆C proteins; source: E. coli BL21(DE3), purified (Ni2+-NTA, dialysis)
T1 sequence (looked up): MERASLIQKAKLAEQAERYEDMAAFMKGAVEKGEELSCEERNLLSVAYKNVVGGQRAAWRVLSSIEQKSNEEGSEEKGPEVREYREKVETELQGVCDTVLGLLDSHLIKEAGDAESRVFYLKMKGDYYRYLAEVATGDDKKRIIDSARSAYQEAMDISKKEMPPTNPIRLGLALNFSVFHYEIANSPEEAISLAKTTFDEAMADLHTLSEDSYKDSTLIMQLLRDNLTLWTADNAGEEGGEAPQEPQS

T2: 14‐3‐3β (human, UniProt P31946 1-246)
T2 construct: 14-3-3 beta, human, full-length protein from the pProEx HTb-His-14-3-3 construct; Written as the protomer; tag removal is told only for the ∆C proteins; source: E. coli BL21(DE3), purified (Ni2+-NTA, dialysis)
T2 sequence (looked up): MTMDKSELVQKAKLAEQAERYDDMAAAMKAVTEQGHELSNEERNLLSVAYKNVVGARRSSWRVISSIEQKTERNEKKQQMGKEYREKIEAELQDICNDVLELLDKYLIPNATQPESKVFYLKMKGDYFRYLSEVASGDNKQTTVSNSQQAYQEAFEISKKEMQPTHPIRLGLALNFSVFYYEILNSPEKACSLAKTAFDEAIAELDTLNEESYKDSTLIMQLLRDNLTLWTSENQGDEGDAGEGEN

T3: 14‐3‐3τ (human, UniProt P27348 1-245)
T3 construct: 14-3-3 tau/theta, human, full-length protein from the pProEx HTb-His-14-3-3 construct; Written as the protomer; tag removal is told only for the ∆C proteins; also called τ/θ; source: E. coli BL21(DE3), purified (Ni2+-NTA, dialysis)
T3 sequence (looked up): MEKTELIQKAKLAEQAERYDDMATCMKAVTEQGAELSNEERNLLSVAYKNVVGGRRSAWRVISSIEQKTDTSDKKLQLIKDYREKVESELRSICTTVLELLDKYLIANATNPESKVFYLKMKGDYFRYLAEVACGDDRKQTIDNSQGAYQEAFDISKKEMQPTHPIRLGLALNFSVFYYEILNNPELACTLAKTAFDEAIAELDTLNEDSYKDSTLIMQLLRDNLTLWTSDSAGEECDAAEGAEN

T4: 14‐3‐3γ (human, UniProt P61981 1-247)
T4 construct: 14-3-3 gamma, human, full-length protein from the pProEx HTb-His-14-3-3 construct; Written as the protomer; tag removal is told only for the ∆C proteins; source: E. coli BL21(DE3), purified (Ni2+-NTA, dialysis)
T4 sequence (looked up): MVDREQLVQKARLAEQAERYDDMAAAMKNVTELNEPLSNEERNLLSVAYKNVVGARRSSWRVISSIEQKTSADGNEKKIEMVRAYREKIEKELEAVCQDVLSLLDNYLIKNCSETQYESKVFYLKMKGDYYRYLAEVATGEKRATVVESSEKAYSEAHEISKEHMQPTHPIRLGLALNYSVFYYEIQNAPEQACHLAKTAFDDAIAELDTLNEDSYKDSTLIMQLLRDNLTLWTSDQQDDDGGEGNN

T5: 14‐3‐3ε (human, UniProt P62258 1-255)
T5 construct: 14-3-3 epsilon, human, full-length protein from the pProEx HTb-His-14-3-3 construct; Written as the protomer; tag removal is told only for the ∆C proteins; source: E. coli BL21(DE3), purified (Ni2+-NTA, dialysis)
T5 sequence (looked up): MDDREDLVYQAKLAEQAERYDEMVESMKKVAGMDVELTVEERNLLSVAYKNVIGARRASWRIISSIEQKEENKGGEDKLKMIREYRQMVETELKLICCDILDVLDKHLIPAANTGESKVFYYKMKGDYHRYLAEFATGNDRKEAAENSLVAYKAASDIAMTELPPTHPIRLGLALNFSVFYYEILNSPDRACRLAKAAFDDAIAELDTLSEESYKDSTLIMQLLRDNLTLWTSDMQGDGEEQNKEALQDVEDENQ

B1: FAM‐Ahx‐hDM2_(160‐171) ^pSer166 (peptide)
peptide: {FAM-Ahx}-SRRRAI[pS]ETEEN-NH2
notes: hDM2 (human double minute 2 protein), human, residues 160-171; Tracer form used in the FA assays; also called hDM2_(160‐171) ^Ser166; source: synthetic peptide (Fmoc SPPS, HPLC purified)
B2: FAM‐Ahx‐hDM2_(180‐192) ^pSer186 (peptide)
peptide: {FAM-Ahx}-QRKRHK[pS]DSISLS-NH2
notes: hDM2 (human double minute 2 protein), human, residues 180-192; Tracer form used in the FA assays; source: synthetic peptide (Fmoc SPPS, HPLC purified)
B3: FAM‐Ahx‐hDMX_(361‐374) ^pSer367 (peptide)
peptide: {FAM-Ahx}-DCRRTI[pS]APVVRPK-NH2
notes: Tracer form used in the FA assays; source: synthetic peptide (Fmoc SPPS, HPLC purified)
B4: FAM‐Ahx‐hDMX_(335‐349) ^pSer342 (peptide)
peptide: {FAM-Ahx}-SKLTHSL[pS]TSDITAI-NH2
notes: hDMX (human double minute 4 protein, hDM4), human, residues 335-349; Tracer form used in the FA assays; source: synthetic peptide (Fmoc SPPS, HPLC purified)

Molecular target: T1, 14‐3‐3σ
Test: fluorescence polarisation; fluorescence anisotropy, direct titration: 14-3-3 protein titrated (1/2 dilution series) against 50 nM FAM-Ahx tracer peptide; 10 mM HEPES, 150 mM NaCl, 0.1% Tween 20, 0.1% BSA, pH 7.4; 384 well plates, triplicates; protein concentration as 14-3-3 monomer; 1:1 fit, biphasic curves fitted as two separate 1:1 events (Kd1, Kd2)
Settings: both partners purified

Kd [µM] | Binder
32.7 ± 1.4 | B1
> 170 | B2
3.6 ± 0.4 | B3
136 ± 3.6 | B4

Molecular target: T2, 14‐3‐3β
Test: as above
Settings: both partners purified

Kd [µM] | Binder
11.1 ± 0.5 | B1
208 ± 6.3 | B2
0.51 ± 0.02 | B3
49.4 ± 11.5 | B4

Molecular target: T3, 14‐3‐3τ
Test: as above
Settings: both partners purified

Kd [µM] | Binder
29.3 ± 2.4 | B1
> 250 | B2
1.2 ± 0.2 | B3
108 ± 6 | B4

Molecular target: T4, 14‐3‐3γ
Test: as above
Settings: both partners purified

Kd [µM] | Binder
3.9 ± 0.3 | B1
82.9 ± 2.1 | B2
0.53 ± 0.04 | B3
37.8 ± 0.7 | B4

Molecular target: T5, 14‐3‐3ε
Test: as above
Settings: both partners purified

Kd [µM] | Binder
23 ± 1.2 | B1
> 260 | B2
2.7 ± 0.2 | B3
53.4 ± 2.9 | B4

From paper PMC9541495, “Understanding the interaction of 14‐3‐3 proteins with hDMX and hDM2: a structural and biophysical study” (The Febs Journal, 2022)
